Source: EP2271364B1

Biological target: CD20 on human lymphoma cells (Daudi, Jeko-1) (human) (UniProt P11836)
Test: cell-based or functional assay

Chain of UniProt P11836 (P11836 whole entry): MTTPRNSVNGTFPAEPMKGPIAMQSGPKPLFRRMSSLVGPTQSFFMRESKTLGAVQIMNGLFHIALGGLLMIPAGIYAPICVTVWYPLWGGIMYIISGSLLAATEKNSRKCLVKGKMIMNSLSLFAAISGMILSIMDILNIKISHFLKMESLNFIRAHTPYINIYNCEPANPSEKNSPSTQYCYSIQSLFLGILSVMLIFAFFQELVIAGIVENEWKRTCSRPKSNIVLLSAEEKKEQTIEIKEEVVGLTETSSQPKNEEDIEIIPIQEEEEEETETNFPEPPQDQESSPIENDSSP

Substance | in vitro proliferation assay, Jeko-1 cells (MTS), high-concentration response [nM] | in vitro proliferation assay, Jeko-1 cells (MTS), low-concentration IFNα2b response [pM] | in vitro proliferation assay, Jeko-1 cells (MTS) [nM]
20-2b, a DNL conjugate of CH3-AD2-IgG-hA20 (CH3-AD2-IgG-v-mab) with four IFN-α2b-DDD2 moieties (from UniProt P01563 24-188) | 0.85 | 0.97 | –
veltuzumab (humanized anti-CD20 MAb hA20) (antibody) | – | – | 1.5
